Laboratory results taken from the DeepSol protein solubility set.

Assay: soluble on expression in E. coli; label from the status in PepcDB or PDB records

Sequence | soluble on expression in E. coli
MSLGELLFNRSFENTKPVSESNSWYTCYRGDVKEAKWWHSGYEEPKWYLLADGRKEEKLPLIFNNYWPSAHGKYFLQIDNRKKQIPTLLVQERIYIEKGKGYTVSGLFSSGGYLSEEKYSKESVPVTIAIYKEGDFHTPLSKTELAVNTNQFILYSSSLDATEYEGWCTYTIEVPAGGCVGIDLLSLMADDVIKGWKRESVERIKNELRPRTMRMPGGCFTSLYDWRSGIGPREERPVSYDTWWGCELLNDVGTFELVDLCEAVGAEPFFCVPVMFNNEYSAADWVDFCNNPTNAQRIAYGRTKPLNVKYWELENEPYRRFDAVTYANRCVDFAKAMKAKDPSIKIAVGNYWLFNKKFKEMLEIVGPYVDLITNRGGTPEEMRADIVILDAYNKAHGTDIKLCHTEFRAPVTRNEGNTDGLNQKDTGGEETLFNASIRWGFAMNMVEQYIAYQNMGGSFFTANYTNLSDGWGECLINTPKEGTYLNAPGVAFALLNSLDIAYPQIIEQEKENQDIVIQAAWNKRRDKLTLVVLNFSQNTQPCKIDFSQIKKSFRVRKGMKIAPQSDLSFNTLQHPEEVKVESFVPSTGKMMKLGLPGNSLIVVELQAERSHGIHVNASTGNEGHHHHHH | not soluble
HMSSLQRASVSFNKPGHIPFGAVQGYAPGGVPAYSNKHDHYFSGERNIEDNIFFGFKYQCVEFARRWLLVRKGLLLPDVNWACHIFQLKEVRDAATTESFAVLQVRNGTTTKPEADALLVYPSTDANPVGHVGTITEVGDDYVCVADQNYRFHKWESSCAYKLKLDHRDGIWTIIDDIDADEIEIPLGWLTFPGRANRPEGAPPVALHPSLHFKEPPKPYLLRRNFLPTESKANWLDMNNPAERLFVEEFGMDVSRTRLEEKVVSYYESNHEFHLRCVAYGTQLHAIFMEATAQVIESDEKLRLFAIPEEFWPRIRHSWKYQQTYISGRFDFAFNNETGEVKCFEYNADSASTLLECGLIQQKWAESVGLDKQDTRGSGFAVERNLKMAWANSGATGRVHFCVDEEREEQYTALYCMQAAEAVGLEGKLCILFDEFRFDDNGHVVDSDGVRVRNVWKTWMWESAITDYYAAREERGENWKPSPKDKVRLCDLLLGDDWEILYFEPMWKVIPSNKAILPMIYHNHPEHPAILKAEYELTDELRKHGYAKKPIVGRVGSNVIITSGDGVVHAESGGKYGKRNMIYQQLFELKKQDDYYAIIGGWMIGDAFSGTGIREDKSVITGVDSPFAAVRIKTDKLPHPVTLKDIDKMAEDE | soluble
TTSLRAYRLGEHGQVLEQRALSAGIMQLPTTPRLISGQLCSDGFELAFDQACGDWLDAEPGLPVIACGMVGSAQGWREAAYRETPASVNQLSAALQTVRSQRGVTVHIIPGVLQRSTLPNVMRGEETQVLGVLAGLETQLDNQPLLIGLPGSHSKWVQVTRGRIVHFDTFMTGEVYAALCAHTILGRTMQPAEAFDDQAFDRGLSIALSDTGSAGPLSTIFSTRTLGLTGQLAASAQPDYLSGLLFGHELGAIARLHLHTHEQLPAVILIGSEALCARYSRGLTVCGFPQVTLAEQATERGLWQVAVQAGLIAR | not soluble
MAHHHHHHMNTNGRSAYDMLARMSDEEDDDVPEDLELTFVPASKRREPASSHAVGHHAGNAVPSTLNSPTHSGPAVINPKPRAETVYEQERNAKVRQVLAEQQKTALGVVFSLDAFEAPSPGRYTLAGLQEATGTPAPSCSSAPYNREDQRRGFSQYRGRGGAEGGGRGGPGGGGGPRRYRMPNPNMSGEEQARYIRHRRNMAVIRNALREVDPETLEYMQVTQAPDQLPLNRNCEGFSKPYFSTDRGRGGVDAGGGRSTSSYRGRGGGGGMHGRGGRGFSPYSVGRGTGATRGDGLGRGAGGGCGRSAPFSPYS | not soluble
MGHHHHHHSHMEEVLEAAEKIRSMEVRGAARIARFAAETLMKFAEKASDEKFDEEMRFAAETLLNTRPTAVSLYNAINYVMRYSGESVEEKRQSVIRRAREFINWVETAQRKIGEIGEKRIKDGYTVMTHCNSSAALSVIKKAHENGKRVEVIATESRPRWQGHLTVKQLREAGIEVTLIVDSAVRYFINEVDCVVVGADTITANGALINKIGTSQIALAAKEARVPFMVAAETYKFSPKTLFGELVVIEERDAREVAPEEILKLGVKVRNPAFDVTPRDYIDVIITEIGAIPPEMAYIVITERLGYAGIEEEEITLNSRHFD | not soluble
MSLKQIIDNVEVYILTGPKEKRPHWVSHFIVPTANELLVKIKTKQGLEGFGIATNYSDINPVIEVFKTDFLDNFIGMDATCPEVIYEKIFNLTSQKLSFEKKWGKEPLIRISAAIDIACWDLIGKASGFPLYKLFGGYRDKVPCYVTCAYYRDGKDNKELKDEIEMLVGQGHQGFKGKVGGLSLREDLERMNIIRDVIGDEKSLMIDVNRAWDLKTASEAVNLLKPINPFWLEEPVRWADDRRELKLLSQKTEIPISGGESELTIYGCRSMLEEQAIQILQFDCTMFGGFTAGKKLSALCEVNHVDIAPHHDCFIHAHIVAGSPSGLIVESFTDPERDPLQAELFTNPPKIENGWLYLNEEPGLGLNLSNDALAKFGNKILEGHHHHHH | soluble
MNEKIEQAIREMGFKNFTEVQSKTIPLMLQGKNVVVRAKTGSGKTAAYAIPILELGMKSLVVTPTRELTRQVASHIRDIGRYMDTKVAEVYGGMPYKAQINRVRNADIVVATPGRLLDLWSKGVIDLSSFEIVIIDEADLMFEMGFIDDIKIILAQTSNRKITGLFSATIPEEIRKVVKDFITNYEEIEACIGLANVEHKFVHVKDDWRSKVQALRENKDKGVIVFVRTRNRVAKLVRLFDNAIELRGDLPQSVRNRNIDAFREGEYDMLITTDVASRGLDIPLVEKVINFDAPQDLRTYIHRIGRTGRMGRKGEAITFILNEYWLEKEVKKVSQKA | soluble
MSINVDEFQCYRIPNVYVQWYDLEPTIHWLTGGNSNSRQIQEMDQKKKKIRSTSAYALFFRERQSLEKRAAPYATFGQISQKIARQWDSLTEEEKKAYKQRCEKNRKTSIANAVEEKARQLLTASKFQ | not soluble
GHMIKGEQKRYSEMTKEELQQEIAMLTEKARKAEQMGMVNEYAVYERKIAMAKAYMLNPADFHPGEIYEIEGAPGEYFKVRYLKGVFAWGWRLKGNGEEEALPISLLRKPNLPQS | soluble
MLRCCSALMCPTAVPSRVSPVAAAAAADIAGSSESTVSLVADVDKKNSQYKQIFLERFRKKLQSDKTGMNNLESFVELPEGVAPSAASIGPIKRGSEPLPPWIKLKVPKGMTHRPRFNRIRRSMREKNLSTVCEEAKCPNIGECWGGSDEEGTATATIMVMGSHCTRGCRFCSVLTSRRPPPLDPEEPEKVAAAVHEMGVDYIVMTMVDRDDLPDGGASHVCCCIHTIKKKNPELMLEALVGDFHGDLKLVEQLAVTPLSVYAHNIECVERITPRVRDRRASYRQSLQTLEHVTKWTNGNMLTKSSIMLGLGEEEAEVRQTLRDLRTAGVSAVTLGQYLQPSHTRLKVSRYAHPKEFEMWEKEAMDMGFLYCASGPMVRSSYRAGEYYIKNILKQRQSAEGGKAAAAATAVNAGTAIA | not soluble
MATKHDQILKHIEDLPIGDRISVRSIAKSLSVSEGTAYRAIKDAENIGLVSTIQRVGTIRIERKLKKHIEKLTFGEVVRIIEGDVLGGSSGLDKVLNKFVIGAMTETAMTRYITPGSLMIVGNRQGVQKLALENGAAVLITGGFETSEEIAQLADRLGMPVLRTTYDTFTVATMINRALSDQLIKKDILLVSDIYTALEKTNYLLTTQTIADYQALSESTHHSRFPVVNKKLRLVGIVTAKDVIGKSEHLTVDKVMTKDPNVVKKMMSVASVSHQMIWDGLEVMPVVEDDLALVGIVSRQDVMKAMQLVQRQPQIADTISDQISGEVMPVEENGKETTRFRFSVAPQMVNSVGTISFGVLSEIISNVTQRTMLMNQKRNVLIEQVNLHYLRLIQLESELDIRPRILEIGRRSAKLDIEVYLENVIVAKAIVVCQVMERT | not soluble
MKIEKTSNFAPINLLYKKKTSFNSRGIFLIIAFNNSSFNLIYKNNNKSYKSTRLNTILRKKNRVIEQVLDKDIIVVPLGGLGEIGMNCMLIGSKKRFILIDCGIMFTDLSHLGIQKVIPDINFLTHIQNLIEGLIITHGHEDHIGAINWVLPILRTDALVYTSRFVYNIISKRIDKQNYLFKKLFRIFDLKKRFQLGPFECEAFRVTHSIPDCCGFVIRSKYGLIVHTGDWKIDEFPLDGEKFDREFLESISKEKVLLMMSDSTNSLSHGRTASEKVVQDSLVSIITNPKIKGRIITTQFASNVFRLYSIKKAADISKKKICFLGTSLNSYLDASLLDGRAPFHPSELVQESELKNIDPDKIIIVTTGSQGEARSTLNLSSLDLSPRLSLNPYDTIIYSAKIIPGNDKKVVRMLNRISSHGCKIIYGNQAKIHTSGHAYEDELKEILKIVKPSYFLPVHGELISLNVHSSIALQNCGIKNTIVMRNGQVLSLESDNQNPLGFKLFNLSGEINLVNHYNTGSSILGSYADIGISDKIKISNEGIILISLEFVRIKESDTYVSFKSKLRISSRGIWIDRGKLNFIIKKLLFNILNKCRTNISIISLEQIISETMNYSCYKINRSNPEIIVYANELTNI | soluble
MAGDPMVIIHMIPKKIHYCWFGKGKHSKEMKKCIKSWKKYCPDYEIIEWNESNFDISAHPFVKAAYEAKAWAFVSDYARLKIIYDYGGVYLDTDVELIRNIDFLLQNDAYLGVEAQDWLCNTGLGFGAKKHNSIIAEMLQIYNEIEFDNSKKSTIACPYLNTAVVEKIGYKKQDRIQQLDKITIYPPKYFDPFPSGGSVSILICDETVSIHHYSASWGSWKNKLKRRIARFIGPKLTFKLKKLKIFLITRKLEHHHHHH | soluble
ADRHYSPIDRFLLQADSALRTLLPFSGQPARPSPAIVEPDGELSEEDTRHIAGLMRINHTGEVCAQALYQGQSLTAKLPEVREAMEEAAEEEIDHLAWCEQRIRQLGSRPSVLNPIFYGLSFGVGAAAGLVSDRVSLGFVAATEDQVCKHLDEHLAQIPQEDRKSRAILEQMRIDEEQHSSNALAAGGLRFPAPVKLGMSLLAKV | not soluble
MADKSAYMSAGGYGSGYMGANASSSGYAREDYAQGGAGGSGNQNQGGSGGNTNPGGQVFKARTDQSCYLGP | not soluble
GKDDDNVETGAFDPSKPVAISDFTPKEGGAYQKLLIYGENFGTDVSKVKVKIGGKDAIVINVKSTYVYCFVPSGAFSGEIEITVGEGENAVTTTASTTFSYEKKMVVGTLCGYRNNRDDQGWRDGPFDGPEGVKCCGFSDNGRLAFDPLNKDHLYICYDGHKAIQLIDLKNRMLSSPLNINTIPTNRIRSIAFNKKIEGYADEAEYMIVAIDYDGKGDESPSVYIIKRNADGTFDDRSDIQLIAAYKQCNGATIHPINGELYFNSYEKGQVFRLDLVDYFKTIKNGGSWDPIVKNNPNTFKQLFTIADPSWEFQIFIHPTGKYAYFGVINNHYFMRSDYDEIKKEFITPYNFVGGYKQSGYRDDVGTEARMNNPCQGVFVKNPDYTGEEEYDFYFVDRLNFCVRKVTPEGIVSTYAGRGASTSLADGNQWGTDDGDLREVARFRDVSGLVYDDVKEMFYVHDQVGHTIRTISMEQEENVAGDENIPEDESTVESNE | soluble
MGSDKIHHHHHHMALLDIRNLCIEIETPKGRVKIIDNVNLTLNEGEICGLVGESGSGKSLIAKVICNAIKDSWIITADRFRFDDVELLKLNPKKRRKLVGKEISMIYQEPLASLDPSRKIGQQLIQSIPSWTFKGRWWQWFGWKKRRAIELLHRVGVKDHKDIMQSYPHEVTEGEGQKIMIALAIANQPRLLIADEPTNSLESMTKVQIFRLLASMNQNQGTSILLVSNDINSISAWCDSFSVLYCGQNAESGSKENILENPHHPYTRALLHSIPDFKQPLVHKSRLSTLKGAVPLLEGMPIGCRLGPRCPFAQKECIRKPTAQRIKQHEFFCHFPINLKESQRREKEMETGPLVVNTTK | not soluble
DDLIEGYLSSEEYYHEESARYIQKFSKYVSENELSTSDRKAFGEWVKKENYINLTIFKDQELQYDSIYSESDYGKEKLTQYAQNHSHPVKFSDGEGRVIIDGFYSSRYYD | not soluble
